Experimental data: the RNAGym collection of RNA variant scans (doi:10.7554/elife.90254)

B1: OR4K15 (parent)
chain: GUUAACGGUCAUAGGCCAUGGAAACUAGGAGCACCAUUUCGCUGCCAGUGAAGAAAUGAACAAAGAAAAUCUGGGCCAGGCAGGCAUCAAAAGAAAUAGUCUUGCGCUCAACCAGAAAGUCUGUAAUCAUUUUAAGGGUA

Variants of: B1
Test: self-cleavage, relative activity (ratio to wild type); higher = more cleavage; in vitro, sequencing; the parent is a self-cleaving ribozyme
In the case of GUUAACGGUCAUAGGCCAUGGAAACUAGGAGCACCAUUUCGCUGCCAGUGAGGAAAUGAACAAAGAAAAUCUGGCCCAGGCAGGCAUCAAAAGAAAUAGUCUUGCGCUCAACCAGAAAGUCUGUAAUCAUUUUAAGGGUA [A52G G75C], the self-cleavage is reported as 0.13. GUUAACGGUCAUAUGCCAUGGAAACUAGGAGCACCAUUUCGCUGCCAGUGAAGAAAUGAACAAAGAAAAUCUGGGCCAGGCAGGCAUCAAAAGAAAUAGUCUUGCGCUCAACCAGAAAGUCUGUAGUCAUUUUAAGGGUA [G14U A126G] gave a self-cleavage of 1.1. GUUAACGGUCAUAGGCCAUGGAAACUAGGAGCACCAUUUCGCUGCCAGUGAAGAAAUGAACAAAGAAAAUCUGGGCCAGGCAGGCUUCAAAAGAAAUAGUCUUGCGCUCAACCAGAAAGUCCGUAAUCAUUUUAAGGGUA [A86U U122C] showed a self-cleavage of 1.74. Work on GUUAAAGGUCAUAGGCCAUGGAAACUAGGAGCACCAUUUCGCUGCCAGUGAAGAAAUGAACAAAGAAAAUCUGGGCCAGGCAGGCAUCAAAAGAAAUAGUCUUGCGCUCAACCAGAGAGUCUGUAAUCAUUUUAAGGGUA [C6A A117G] yielded a self-cleavage of 0.6. GUUAACGGUCACAGGCCAUGGAAACUAGGAGCACCAUUUCGCUGCCAGUGAAGAAAUGAACAAAGAAAAUCUGGGCCAGGCAGGCAUCAAAAGAAAUAGUCUUGCGCUCAACCAGAAAGUCUGUAGUCAUUUUAAGGGUA [U12C A126G] gave a self-cleavage of 0.55. Work on GUUAACGGUCAUAGGCCAUGGAAACUAGGAGCGCCAUUUCGCUGCCAGUGAAGAAAUGAACAAAGAAAAUCUGGGCCAGGCAGGCAUCAAAAGAAAUAGUCUUGCACUCAACCAGAAAGUCUGUAAUCAUUUUAAGGGUA [A33G G106A] yielded a self-cleavage of 0.04. For GUUAACGGUCAUAGGCCAUGGAAACUAGGUGCACCAUUUCGCUGCCAGUGAAGAAAUGAACAAAGAAAAUCUGGGCCAGGCAGGCAUCAAGAGAAAUAGUCUUGCGCUCAACCAGAAAGUCUGUAAUCAUUUUAAGGGUA [A30U A91G], the self-cleavage was 1.35. In the case of GUUAACGGUCAUAGGCCAUGGAAACUAGGAGCACCAUUUCGCUGCCAGUGAAGAAAUGAACAAAGAAAAUCUGGGCCAGGCAGGCAUCAAGAGAAAUAGUCUUGCGCUCAACCAGAAAGCCUGUAAUCAUUUUAAGGGUA [A91G U120C], the self-cleavage is reported as 0.53. For GUUAACGGUCAUAGGCCAUGGAAACUAGGAGCACCAUUUCGCUGCCAGUGAAGAAAUGAACAAGGAAAAUCUGGGCCAGGCAGGCAUCAAAAGAAAUAGUCUUGCGCCCAACCAGAAAGUCUGUAAUCAUUUUAAGGGUA [A64G U108C], the self-cleavage was 0.01. Work on GUUAACGGUCAUAGGCCAUGGAGGCUAGGAGCACCAUUUCGCUGCCAGUGAAGAAAUGAACAAAGAAAAUCUGGGCCAGGCAGGCAUCAAAAGAAAUAGUCUUGCGCUCAACCAGAAAGUCUGUAAUCAUUUUAAGGGUA [A23G A24G] yielded a self-cleavage of 1.03. GUUAACGGUCAUAGGCCAUGGAAACUAGGAGCACCAUUUCGCUGCCAGUGAAGAAAUAAACAAAGAAAAUCUGGGCCAGGCAGGCAUCAAAAGAGAUAGUCUUGCGCUCAACCAGAAAGUCUGUAAUCAUUUUAAGGGUA [G58A A95G] gave a self-cleavage of 1.51. GUUAACGGUCAUAGGCCAUGGAAACUAGGAGCACCAUUUCGCUGCCAGUGAAGAAAUGAACAGAGAAAAUCUGGGCCAGGCAGGCAUCAAAAGAAAUAGUCUUGCGCUCAACCAGGAAGUCUGUAAUCAUUUUAAGGGUA [A63G A116G] gave a self-cleavage of 1.17. Work on GUUAACGGUCAUAGGCCAUGGAAACUAGGAGCACCAUUUCGCUGCCAGUGAAGAAAUGAACAAAGAGAAUCUGGGCCAGGCAGGCAUCAAAAGAAAUAGUCUUGCGCUCAACCAGAAAGUCUGUAAUCAUUUUAAGUGUA [A67G G137U] yielded a self-cleavage of 2.03. Variant GUUAACGGUCAUAGGCCAUGGAAACUAGGAGCACCAUUUCGCUGCCAGUGAAGAAAUGAACAAAGAAAAACUGGGCCAGGCAGGCAUCAAAAGAAAUAGUCUUGCGCUCAACCAGGAAGUCUGUAAUCAUUUUAAGGGUA [U70A A116G] has a self-cleavage of 0.59. For GUUAACGGUCAUAGGCCAUGGAAACUAGGAGCACCAUUUGGCUGCCAGUGAAGAAAUGAACAAAGAAAAUCUGGGCCAGGCAGGCAUCAAAAGGAAUAGUCUUGCGCUCAACCAGAAAGUCUGUAAUCAUUUUAAGGGUA [C40G A94G], the self-cleavage was 0.63. For GUAAACGGUCAUAGGCCAUGGAAACUAGGAGCACCGUUUCGCUGCCAGUGAAGAAAUGAACAAAGAAAAUCUGGGCCAGGCAGGCAUCAAAAGAAAUAGUCUUGCGCUCAACCAGAAAGUCUGUAAUCAUUUUAAGGGUA [U3A A36G], the self-cleavage was 0.85. GUUAACGGUCAUAGGCCAUGGAAACUAGGAGCACCAUUUCGCUGCCAGUGAAGAAAUGAACAAAGAACAUCUGGGCCAGGCAGGCAUCAAAAGAAAUAGUCUUGCGCUCAACCAGAAGGUCUGUAAUCAUUUUAAGGGUA [A68C A118G] showed a self-cleavage of 1.84. For GUUAACGGUCAUAGGCCAUGGAAACUAGGAGCACCAUUUCGCUGCCAGUGAAGAAAUGAACAAAGAAAAUCUGGGCCAGGCAGGCAUCUAAAGAAAUAGUCUUGCGCUCUACCAGAAAGUCUGUAAUCAUUUUAAGGGUA [A89U A110U], the self-cleavage was 1.46. In the case of GUUAACGGUCAAAGGCCAUGGAAACUAGGAGCACCAUUUCGCUGCCAGAGAAGAAAUGAACAAAGAAAAUCUGGGCCAGGCAGGCAUCAAAAGAAAUAGUCUUGCGCUCAACCAGAAAGUCUGUAAUCAUUUUAAGGGUA [U12A U49A], the self-cleavage is reported as 0.48. For GUUAACGGUCAUAGGCCAUGGAAACUAGGAGCACCAUUUCGCUGCCAGUGAAGAAAUGAACAAAGAAAAUCUGGGCCAGGCAGGCAUCAAAAGAAAUAGUCUUGCGCUCAACCAGAAAGUCUGUAAUCAUCAUAAGGGUA [U131C U132A], the self-cleavage was 0.94. In the case of GUUAACGGUCAUAGGCCAUGGAAACUAGGAGCACCAUUACGCUGCCAGUGAAGAAAUGAACAAAGAAAAUCUGGGCCAGGCAGGCAUCAAAAGAAAUGGUCUUGCGCUCAACCAGAAAGUCUGUAAUCAUUUUAAGGGUA [U39A A98G], the self-cleavage is reported as 1.11. In the case of GUUAACGGUCAUAGGCCAUGGAAACUAGGAGCACCAUUUCGCUGCCAGUGAAGAAAUGAACAAAGAAAAUCUGGGCCAGGCAGGCAUCAAAAGAAAUAGUCAUGCGUUCAACCAGAAAGUCUGUAAUCAUUUUAAGGGUA [U102A C107U], the self-cleavage is reported as 0.01. GUUAACGGUCAUCGGCCAUGGAGACUAGGAGCACCAUUUCGCUGCCAGUGAAGAAAUGAACAAAGAAAAUCUGGGCCAGGCAGGCAUCAAAAGAAAUAGUCUUGCGCUCAACCAGAAAGUCUGUAAUCAUUUUAAGGGUA [A13C A23G] gave a self-cleavage of 1.36. GUUAACGGUCAUAGGCCAUGGAAACUAGGAGCACCAUUUCGCUGCCAGUGAAGAAAUGAACAAAGAAAAUCUGGGCCAGGCAGGCAUCAAAGGAAAUAGUCUUGCGCUCAACCAGAAAGUCUGUAAUCAUUUUACGGGUA [A92G A135C] showed a self-cleavage of 0.84. GUUAACGGUCUUAGGCCAUGGAAACUAGGAGCACCAUUUCGCUGCCAGUGAAGAAAUGAACAAAGAAAAUCUGGGCCAGGCAGGCAUCGAAAGAAAUAGUCUUGCGCUCAACCAGAAAGUCUGUAAUCAUUUUAAGGGUA [A11U A89G] showed a self-cleavage of 1.21. In the case of GUUAACGGUCAUAGGCCAUGGAAACUAGGAGCACCAUUUCGCUGCCAGUGGAGAAAUGAACAAAGAAAAUCUGGGCCAGGCAGGCAUCGAAAGAAAUAGUCUUGCGCUCAACCAGAAAGUCUGUAAUCAUUUUAAGGGUA [A51G A89G], the self-cleavage is reported as 0.95. Work on GUUAACGGUCAUAGGCCAUGGAAACUAGAAGCACCAUUUCGCUGCCAGUGAAGAAAUGAACAAAGAAAAUCUGGGCCAGGCAGGCAUCAAAAGAAAUAGUCUUGCGCUCAACCAGAAAGUCUGUAAUCAUCUUAAGGGUA [G29A U131C] yielded a self-cleavage of 0.66. With GUUAACGGUCAUAGGUCAUGGAAACUAGGAGCACCAUUUCGCAGCCAGUGAAGAAAUGAACAAAGAAAAUCUGGGCCAGGCAGGCAUCAAAAGAAAUAGUCUUGCGCUCAACCAGAAAGUCUGUAAUCAUUUUAAGGGUA [C16U U43A] the self-cleavage was 0.54. GUUAACGGUCAUAGGCCAUGGAGACUAGGAGUACCAUUUCGCUGCCAGUGAAGAAAUGAACAAAGAAAAUCUGGGCCAGGCAGGCAUCAAAAGAAAUAGUCUUGCGCUCAACCAGAAAGUCUGUAAUCAUUUUAAGGGUA [A23G C32U] gave a self-cleavage of 0.82. Work on GUUAACGGUCAUAGGCCAUGGAAACUAGGAGCACCAUUUCGCAGCCAGUGAAGAAAUGAACAAAGAAAAUCUGGGCCAGGCAGGCAUCAAAAGAAAUAGUCUUGCGCUCGACCAGAAAGUCUGUAAUCAUUUUAAGGGUA [U43A A110G] yielded a self-cleavage of 0.19. GUUAACGGUCAUAGGCCAUGGAAACUAGGAGCACCAUUUCGCUGCCAGGGAAGAAAUGAACAAAGAAAAUCUGGGCCAGGCAGGCAUCAAAAGAAAUAGUCUUGCGCUCAACCAGAAAGUCUGUAAUCAUUUUAAGGGAA [U49G U139A] showed a self-cleavage of 1.7. GUUAACGGUCAUAGGCCAUGGAAACUGGGAGCACCAUUUCGCUGCCAGUGAAGAAAUGAACAAAGAAAAUCUGGGCCAGGCAGGCAUCAAAAGGAAUAGUCUUGCGCUCAACCAGAAAGUCUGUAAUCAUUUUAAGGGUA [A27G A94G] showed a self-cleavage of 1.48. Variant GUUAACGGUCAUAGGCCGUGGAAACUAGGAGCACCAUUUCGCUGCCAGUGAAGAAAUGAACAAAGAAAAUCUGGGCCAGGCAGGCAUCAAAAGAAUUAGUCUUGCGCUCAACCAGAAAGUCUGUAAUCAUUUUAAGGGUA [A18G A96U] has a self-cleavage of 1.84. Variant GUUAACGGUCAUAGGCCAUGGAAACUAGGAGCACCAUUUCGCUGCCAGUGAAGAAAUGAACAAAGAAAGUCUGGGCCAGGCAGGCAUCAAAAGUAAUAGUCUUGCGCUCAACCAGAAAGUCUGUAAUCAUUUUAAGGGUA [A69G A94U] has a self-cleavage of 1.45. Work on GUUAACGGUCAUAGGCCACGGAAACUAGGAGCACCAUUUCGCUGCCAGUGAAGAAAUGAACAAAGAAAAUCUGGGCCAGGCAGGCAUCAAAAGAAAUAGUCUUGCGCUCCACCAGAAAGUCUGUAAUCAUUUUAAGGGUA [U19C A110C] yielded a self-cleavage of 0.16. Work on GUUGACGGUCAUGGGCCAUGGAAACUAGGAGCACCAUUUCGCUGCCAGUGAAGAAAUGAACAAAGAAAAUCUGGGCCAGGCAGGCAUCAAAAGAAAUAGUCUUGCGCUCAACCAGAAAGUCUGUAAUCAUUUUAAGGGUA [A4G A13G] yielded a self-cleavage of 1.27. Variant GUUAACGGUCAUAGGCCGUGGAAACUAGGAGCACCAUUUCGCUGCCAGUGAAGAAAUGAACAAAGAAAAUCUGGGCCAGGCAGGCAUCAAAAGAAAUAGUCUUGCGCUCAACCAGAAAGUCAGUAAUCAUUUUAAGGGUA [A18G U122A] has a self-cleavage of 0.94. In the case of GUUAACGGUCAUAGGCCAUGGAAACUAGGAGCACCAUUUCGCUGCCAGUGAAGAAAUGAACAAAGAAAAUCUGGACCAGGCAGGCAUCAAAAGAAAUAGUCUUGCGCCCAACCAGAAAGUCUGUAAUCAUUUUAAGGGUA [G75A U108C], the self-cleavage is reported as 0.03. With GUUAACGGUCAUAGGCCAUGGAAACUAGGAGCACCAUCUCGCUGCCAGUGAAGAAAUGAACAAGGAAAAUCUGGGCCAGGCAGGCAUCAAAAGAAAUAGUCUUGCGCUCAACCAGAAAGUCUGUAAUCAUUUUAAGGGUA [U38C A64G] the self-cleavage was 1.45. Work on GUUAACAGUCAUAGGCCAUGGAAACUAGGAGCACCAUUUCGCUGCCAGUGAAGAAAUGAACAAAGAAAUUCUGGGCCAGGCAGGCAUCAAAAGAAAUAGUCUUGCGCUCAACCAGAAAGUCUGUAAUCAUUUUAAGGGUA [G7A A69U] yielded a self-cleavage of 1.79. GUUAACGGUCAUAGGCCACGGAAACUGGGAGCACCAUUUCGCUGCCAGUGAAGAAAUGAACAAAGAAAAUCUGGGCCAGGCAGGCAUCAAAAGAAAUAGUCUUGCGCUCAACCAGAAAGUCUGUAAUCAUUUUAAGGGUA [U19C A27G] showed a self-cleavage of 0.89.
